# Measurements from patent publication US20240010720A1 (IOMX THERAPEUTICS, published 2024).
# Target: T1, Streptavidin (UniProt P22629 37-163, limits assumed)
# T1 construct: also called negative antigen; irrelevant antigen
# Test: ELISA, scFv
# T1 sequence (P22629 37-163 limits assumed): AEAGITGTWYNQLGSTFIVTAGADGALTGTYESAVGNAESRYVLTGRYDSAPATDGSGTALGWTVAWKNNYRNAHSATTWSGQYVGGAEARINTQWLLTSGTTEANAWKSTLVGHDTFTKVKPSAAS
row,Binder,binding result
1,"A-022 (scFv format) (scFv, V domains shown, scFv) VH: EVQLLESGPGLVKPSQTLSLTCTVSGGSISSGGYYWSWIRQHPGKGLEWIGYIYYSGSTYYNPSLKSRVTISVDTSKNQFSLKLSSVTAADTAVYYCARASRSTDYYFDYWGQGTLVTVSS VL: QPGLTQPPSMSYGLGQTATLTCTGNRNNIGDQGAAWLQQHQGHPPKLLSYRNNNGPSGISERLSASRSGNTASLTISGLQPEDEADYYCSAWDSSLRAWVFGGGTKLTVL",no binding (tested: <0.025 or <0.05 RFU)
2,"A-001 (scFv format) (scFv, V domains shown, scFv) VH: EVQLVESGGGLVKPGGSLRLSCAASGFTFSSYSMNWVRQAPGKGLEWVSSISSSSSYIYYADSVKGRFTISRDNAKNSLYLQMNSLRAEDTAVYYCVRSIIVQALGITSVFDIWGQGTMVTVSS VL: AIRLTQSPSSLSASVGDRVTISCRASQIISNHLNWYQQKPGKAPKLLIYAASRLQTGVPSRFSGSGSETDYTLTISSLQPEDFATYYCQQSYSNPRTFGHGTKVEIK",no binding (tested: <0.025 or <0.05 RFU)
3,"A-034 (scFv format) (scFv, V domains shown, scFv) VH: QMQLVQSGGGLVKPGGSLRLSCAASGFTFSSYTMNWVRQAPGKGLEWVSSISSIGTYIYYADSVKGRFTISRDNAKNSLYLQMNSLRAEDTAVYYCARVLLSGSYYGYFDSWGQGTLVTVSS VL: QSVLTQPPSVSGAPGQRVTISCTGSSSNIGAGYDVHWYQQLPGTAPKLFIYGNSNRPSGVPDRFSGSKSGTSASLAITGLQAEDEADYYCQSYDSSLSGYVFGTGTKVTVL",no binding (tested: <0.025 or <0.05 RFU)
4,"A-023 (scFv format) (scFv, V domains shown, scFv) VH: QVQLVQSGAEVKKPGSSVKVSCKASGGTFSSYAISWVRQAPGQGLEWMGGIIPIFGTANYAQKFQGRVTITADESTSTAYMELSSLRSEDTAVYYCARPKYSSGWFYYYGMDVWGQGTTVTVSS VL: QSVLTQPPSVSAAPGQKVTISCSGSSSNIGNNYVSWYQQLPGTAPKLLIYDNNKRPSGIPDRFSGSKSGTSATLGITGLQTGDEADYYCGTWDSSLSVVFGGGTKLTVL",no binding (tested: <0.025 or <0.05 RFU)
5,"A-011 (scFv format) (scFv, V domains shown, scFv) VH: QVQLVESGGGVVQPGRSLRLSCAASGFTFSSYAMHWVRQAPGKGLEWVAVISYDGSNKYYADSVKGRFTISRDNSKNTLYLQMNSLRAEDTAVYYCAEGGALNYYGMDVWGQGTTVTVSS VL: SSELTQDPGVSVALGQTVRITCQGDSLRHFYATWYQQKPGQAPILVIYGKNNRPSGIPDRFSGSSSEDTASLTITGAQAEDEADYYCQSRDPRNNHLIFGGGTKLIVL",no binding (tested: <0.025 or <0.05 RFU)
6,"A-007 (scFv format) (scFv, V domains shown, scFv) VH: not shown VL: QSALTQPASVSGSPGQSITIACTGSSSDIGSFSYVSWYQQRPGKAPTLIIYGVNNRPLGVSRRFSGSKSGNTASLSISGLQAEDEADYYCSSYTRRSTVIFGGGTKLTVL",no binding (tested: <0.025 or <0.05 RFU)
7,"A-003 (scFv format) (scFv, V domains shown, scFv) VH: VQLVQSGAEVKKPGSSVKVSCKASGGTFSSYAISWVRQAPGQGLEWMGGIIPIFGTANYAQKFQGRVTITADESTSTAYMELSSLRSEDTAVYYCASPRIQLWAAGGFDYWGQGTLVTVSS VL: QSALTQPASVSGSPGQSITISCTGTSSDVGGYNLVSWYQQHPGKAPKLMIYDVSNRPSGVSNRFSGSKSGNTASLTISGLQAEDEADYYCSSFTTSTTLVFGGGTKLTVL",no binding (tested: <0.025 or <0.05 RFU)
8,"A-008 (scFv format) (scFv, V domains shown, scFv) VH: QLQLQESGPGLVKPSETLSLTCTVSGGSISSSGYYWGWIRQPPGKGLEWIGSIYYSGSTYYNPSLKSRVTISVDTSKNQFSLKLSSVTAADTAVYYCARHRVRFGEFDAFDIWGQGTMVTVSS VL: QAVLTQPPSVSGAPGERVTLSCTGTSSNVGADFDVHWYQQFPGTAPRLLIFGSDNRPSGVPDRFSGSKSGTSASLAITGLQVEDEADYYCQAYDVRLSGWVFGGGTKLTVL",no binding (tested: <0.025 or <0.05 RFU)
9,"A-033 (scFv format) (scFv, V domains shown, scFv) VH: QVQLVQSGAEVKKPGASVKVSCKASGYTFTSYGISWVRQAPGQGLEWMGWISAYNGNTNYAQKLQGRVTMTTDTSTSTAYMELRSLRSDDTAVYYCARDHSIVGATTFDYWGQGTLVTVSS VL: not shown",no binding (tested: <0.025 or <0.05 RFU)
10,"A-015 (scFv format) (scFv, V domains shown, scFv) VH: not shown VL: QPVLTQSPSASASLGASVKLTCTLSSGHTNYAIAWRQQQPGKAPRYLMLLNSDGSHTRGGGIPDRFSGSSSGAERYLTISSLQSEDEADYYCMIWHNNAWVFGGGTKLAVL",no binding (tested: <0.025 or <0.05 RFU)
11,"A-016 (scFv format) (scFv, V domains shown, scFv) VH: QVQLQESGAEVKKPGASVKVSCKASGYTFTGYYMHWVRQAPGQGLEWMGGIIPIFGTANYAQKFQGRVTITADESTSTAYMELSSLRSEDTAVYYCAGAGMELTRSGAYYYYGMDVWGQGTTVTVSS VL: QSALTQPASVSGSPGQSITISCTGTSSDIGGYTFVSWYQQHPGKAPKVMIHDVNNRPSGISNRFSGSKSGNTASLTISGLQAEDEADYYCSSVTSTNTYVFGTGTKVTVL",no binding (tested: <0.025 or <0.05 RFU)
12,"A-009 (scFv format) (scFv, V domains shown, scFv) VH: QVQLVQSGAEVKKPGSSVKVSCKASGGTFSSYAISWVRQAPGQGLEWMGGIIPIFGTANYAQKFQGRVTITADESTSTAYMELSSLRSEDTAVYYCARGRGFGELYFDYWGQGTLVTVSS VL: ETTLTQSPATLSVSPGERATLSCRASQGVRSNIAWYQQKPGQAPRLLIYDSSTRATGIPARFSGSGSGTEFTLTISSLQSEDFAVYSCQQYKNWPRTFGQGTKVEIK",no binding (tested: <0.025 or <0.05 RFU)
13,"A-027 (scFv format) (scFv, V domains shown, scFv) VH: QVQLVQSGAEVKKPGSSVKVSCKASGGTFSSYAISWVRQAPGQGLEWMGGIIPIFGTANYAQKFQGRVTITADKSTSTAYMELSSLRSEDTAVYYCARARGSTWGYFDYWGQGTLVTVSS VL: EIVLTQSPASLSLSPGERVTLSCRASQSVSNYLAWYQQKPGQAPRLLIYDASNRATGIPARFSGSGSGTDFTLTISSLEPEDFAVYYCQQRDNWPLTFGGGTKVEIK",no binding (tested: <0.025 or <0.05 RFU)
14,"A-025 (scFv format) (scFv, V domains shown, scFv) VH: QVQLVQSGAEVKKPGSSVKVSCKASGGTFSSYAISWVRQAPGQGLEWMGGIIPIFGTANYAQKFQGRVTITADESTSTAYMELTSLRSEDTAVYYCARGGWLRQNWFDPWGQGTLVTVSS VL: SSELTQDPAVSVALGQTVRITCQGDSLRSYYASWYQQKPGQAPVLVIYGKNNRPSGIPDRFSGSSSGNTASLTITGAQAEDEADYYCNSRDSSGNHPRVFGGGTKLTVL",no binding (tested: <0.025 or <0.05 RFU)
15,"A-029 (scFv format) (scFv, V domains shown, scFv) VH: QVQLVQSGAEVKKPGSSVKVSCKASGGTFSSYAISWVRQAPGQGLEWMGGIIPIFGTANYAQKFQGRVTITADESTGTAYMELSSLRSEDTAVYYCARSYYYYYGMDVWGQGTTVTVSS VL: not shown",no binding (tested: <0.025 or <0.05 RFU)
16,"A-010 (scFv format) (scFv, V domains shown, scFv) VH: QVQLVQSGAEVKKPGASVKVSCKASGYTFTSYGISWVRQAPGQGLEWMGWISAYNGNTNYAQKLQGRVTMTTDTSTSTAYMELRSLRSDDTAVYYCARVPAWSGQFDYWGQGTLVTVSS VL: QSALTQPASVSGSPGQSITISCTGSSSDVGGYNYVSWYQQYPGKAPKLMIYDVRSRPSGVSNRFSGSKSGNTASLTISGLQAEDEADYYCTSYTSSNTLVIFGGGTKVTVL",no binding (tested: <0.025 or <0.05 RFU)
17,"A-024 (scFv format) (scFv, V domains shown) VH: QMQLVQSGAEVKKPGSSVKVSCKASGGTFSSYAISWVRQAPGQGLEWMGWISAYNGNTNYAQKLQGRVTMTTDTSTSTAYMELRSLRSDDTAVYYCASLGSYGYTGAFDIWGQGTMATVSS VL: QSALTQPASVSGSPGQSITISCTGTSSDVGGYNYVSWYQQHPGKAPKLMIYEVSNRPSGVSNRFSGSKSGNTASLTISGLQAEDEADYYCSSYTSSSTLVVFGGGTKLTVL",no binding (tested: <0.025 or <0.05 RFU)
18,"A-002 (scFv format) (scFv, V domains shown, scFv) VH: EVQLVESGGGLIQPGGSLRLSCAASGFTVSSNYMSWVRQAPGKGLEWVSVIYSGGSTYYADSVKGRFTISRDNSKNTLYLQMNSLRAEDTAVYYCARGNPYYYGDLQVNFDYWGQGTLVTVSS VL: QAVVTQEPSLTVSPGGTVTPTCGSSTGAVTSGNLPNWFQQKPGQAPRALIYSTSNKHSWTPARISGSLLGGKAALTLSGVQPEDEAEYYCLLYYGGAWVFGGGTKLTVL",no binding (tested: <0.025 or <0.05 RFU)
19,"A-012 (scFv format) (scFv, V domains shown, scFv) VH: EVQLLESGGGLIQPGGSLRLSCAVSGFTVSSNYMSWVRQAPGKGLEWVSVIYSGGSTYYADSVKGRFTISRDNSKNTLYLQMNSLRAEDTAVYYCARGNPYYYGDLQVNFDYWGQGTLVTVSS VL: QAVVTQEPSLTVSPGGTVTLTCASSTGAVTSGYYPNWFQQKPGQAPRALIYSTSNKHSWTPARFSGSLLGGKAALTLSGVQPEDEAEYYCLLYYGGAWVFGGGTKLTVL",no binding (tested: <0.025 or <0.05 RFU)
20,"A-013 (scFv format) (scFv, V domains shown, scFv) VH: EVQLVESGGGLIQPGGSLRLSCAASGFTVSSNYMSWVRQAPGKGLEWVSVIYSGGSTYYADSVKGRFTISRDNSKNTLYLQMNSLRAEDTAVYYCARGNPYYYGDLQVNFDYWGQGTLVTVSS VL: QAVVTQEPSLTVSPGGTVTLTCASSTGAVTSAYYPNWFQQKPGQAPRALIYSTSNKHSWTPARFSGSLLGGKAALTLSGVQPEDEADYYCLLYYGGAWVFGGGTKLTVL",no binding (tested: <0.025 or <0.05 RFU)
21,"A-005 (scFv format) (scFv, V domains shown, scFv) VH: EVQLVESGGGLIQPGGSLRLSCAASGFTVSSNYMSWVRQAPGKGLEWVSVIYSGGSTYYADSVKGRFTISRDNSKNTLYLQMNSLRAEDTAVYYCARGNPYYYGDLQVNFDYWGQGTLVTVSS VL: QAVVTQEPSLTVSPGETVTLTCASSTGAVTSGYYPNWFQQRPGQAPRALIYSTSNKDSWTPARFSGSLLGGKAALTLSGVQPEDEAEYYCLLYYGGAWVFGGGTKLTVL",no binding (tested: <0.025 or <0.05 RFU)
22,"A-006 (scFv format) (scFv, V domains shown, scFv) VH: EVQLVESGGGLIQPGGSLRLSCAASGFTVSSNYMSWVRQAPGKGLEWVSVIYSGGSTYYADSVKGRFTISRDNSKNTLYLQMNSLRAEDTAVYYCARGNPYYYGDLQVNFDYWGQGTLVTVSS VL: QAVVTQEPSLTVSPGGTVTLTCASSTGAVTSGYYPNWFQQKPGQAPRPLIYSTSNKHSWTPARFSGSLLGGKAALTLSGVQPDDEAEYYCLLYYGGDWVFGGGTKLTVL",no binding (tested: <0.025 or <0.05 RFU)
